From article PMC10511561, “Synergism between CMG helicase and leading strand DNA polymerase at replication fork” (Nature Communications, 2023)

B1: Mcm2 (subunit of CMG) (natural protein, yeast)
chain: MSDNRRRRREEDDSDSENELPPSSPQQHFRGGMNPVSSPIGSPDMINPEGDDNEVDDVPDIDEVEEQMNEVDLMDDNMYEDYAADHNRDRYDPDQVDDREQQELSLSERRRIDAQLNERDRLLRNVAYIDDEDEEQEGAAQLDEMGLPVQRRRRRRQYEDLENSDDDLLSDMDIDPLREELTLESLSNVKANSYSEWITQPNVSRTIARELKSFLLEYTDETGRSVYGARIRTLGEMNSESLEVNYRHLAESKAILALFLAKCPEEMLKIFDLVAMEATELHYPDYARIHSEIHVRISDFPTIYSLRELRESNLSSLVRVTGVVTRRTGVFPQLKYVKFNCLKCGSILGPFFQDSNEEIRISFCTNCKSKGPFRVNGEKTVYRNYQRVTLQEAPGTVPPGRLPRHREVILLADLVDVSKPGEEVEVTGIYKNNYDGNLNAKNGFPVFATIIEANSIKRREGNTANEGEEGLDVFSWTEEEEREFRKISRDRGIIDKIISSMAPSIYGHRDIKTAVACSLFGGVPKNVNGKHSIRGDINVLLLGDPGTAKSQILKYVEKTAHRAVFATGQGASAVGLTASVRKDPITKEWTLEGGALVLADKGVCLIDEFDKMNDQDRTSIHEAMEQQSISISKAGIVTTLQARCSIIAAANPNGGRYNSTLPLAQNVSLTEPILSRFDILCVVRDLVDEEADERLATFVVDSHVRSHPENDEDREGEELKNNGESAIEQGEDEINEQLNARQRRLQRQRKKEEEISPIPQELLMKYIHYARTKIYPKLHQMDMDKVSRVYADLRRESISTGSFPITVRHLESILRIAESFAKMRLSEFVSSYDLDRAIKVVVDSFVDAQKVSVRRQLRRSFAIYTLGH
notes: Mcm2, yeast; Chain of m1 as it stands in the replisome structure; source: yeast strain yJCZ2, purified as part of CMG (anti-FLAG M2 resin, Mono Q, Superose 6)
B2: Cdc45 (subunit of CMG) (natural protein, yeast)
chain: MYYGISQFSEAYNKILRNSSSHSSCQLVIFVSCLNIDALCATKMLSLLFKKQLVQSQIVPIFGYSELRRHYSQLDDNINSLLLVGFGGVIDLEAFLEIDPQEYVIDTDEKSGEQSFRRDIYVLDAHRPWNLDNIFGSQIIQCFDDGTVDDTLGEQKEAYYKLLELDEESGDDELSGDENDNNGGDDEATDADEVTDEDEEDEDETISNKRGNSSIGPNDLSKRKQRKKQIHEYEGVLEEYYSQGTTVVNSISAQIYSLLSAIGETNLSNLWLNILGTTSLDIAYAQVYNRLYPLLQDEVKRLTPSSRNSVKTPDTLTLNIQPDYYLFLLRHSSLYDSFYYSNYVNAKLSLWNENGKKRLHKMFARMGIPLSTAQETWLYMDHSIKRELGIIFDKNLDRYGLQDIIRDGFVRTLGYRGSISASEFVEALTALLEVGNSTDKDSVKINNDNNDDTDGEEEEDNSAQKLTNLRKRWVSNFWLSWDALDDRKVELLNRGIQLAQDLQRAIFNTGVAILEKKLIKHLRIYRLCVLQDGPDLDLYRNPLTLLRLGNWLIECCAESEDKQLLPMVLASIDENTDTYLVAGLTPRYPRGLDTIHTKKPILNNFSMAFQQITAETDAKVRIDNFESSIIEIRREDLSPFLEKLTLSGLL
notes: Cdc45, yeast; Chain of m1 as it stands in the replisome structure; source: yeast strain yJCZ2, purified as part of CMG (anti-FLAG M2 resin, Mono Q, Superose 6)
B3: Mcm5 (subunit of CMG) (natural protein, yeast)
chain: MSFDRPEIYSAPVLQGESPNDDDNTEIIKSFKNFILEFRLDSQFIYRDQLRNNILVKNYSLTVNMEHLIGYNEDIYKKLSDEPSDIIPLFETAITQVAKRISILSRAQSANNNDKDPENTSMDTDSLLLNSLPTFQLILNSNANQIPLRDLDSEHVSKIVRLSGIIISTSVLSSRATYLSIMCRNCRHTTSITINNFNSITGNTVSLPRSCLSTIESESSMANESNIGDESTKKNCGPDPYIIIHESSKFIDQQFLKLQEIPELVPVGEMPRNLTMTCDRYLTNKVIPGTRVTIVGIYSIYNSKNGAGSGRSGGGNGGSGVAIRTPYIKILGIQSDVETSSIWNSVTMFTEEEEEEFLQLSRNPKLYEILTNSIAPSIFGNEDIKKAIVCLLMGGSKKILPDGMRLRGDINVLLLGDPGTAKSQLLKFVEKVSPIAVYTSGKGSSAAGLTASVQRDPMTREFYLEGGAMVLADGGVVCIDEFDKMRDEDRVAIHEAMEQQTISIAKAGITTVLNSRTSVLAAANPIYGRYDDLKSPGDNIDFQTTILSRFDMIFIVKDDHNEERDISIANHVINIHTGNANAMQNQQEENGSEISIEKMKRYITYCRLKCAPRLSPQAAEKLSSNFVTIRKQLLINELESTERSSIPITIRQLEAIIRITESLAKLELSPIAQERHVDEAIRLFQASTMDAASQDPIGGLNQASGTSLSEIRRFEQELKRRLPIGWSTSYQTLRREFVDTHRFSQLALDKALYALEKHETIQLRHQGQNIYRSGV
notes: Mcm5, yeast; Chain of m1 as it stands in the replisome structure; also called Mcm5-CTD; Mcm5-WHD; source: yeast strain yJCZ2, purified as part of CMG (anti-FLAG M2 resin, Mono Q, Superose 6)

Molecular target: T1, Pol2 (subunit of Polε in the replisome) (yeast, UniProt P21951 1-2222)
T1 construct: Pol2, yeast, catalytic subunit of Polε; Chain of m2 as it stands in the replisome structure; the catalytic NTD is flexible and not resolved; also called Pol2-CTD; Pol2-ZF2; source: yeast strain yAJ2, purified as part of Polε (calmodulin resin, TEV elution, Mono Q, Superose 6); not shown: CBP, N-terminal, cleaved
T1 sequence (P21951 whole entry): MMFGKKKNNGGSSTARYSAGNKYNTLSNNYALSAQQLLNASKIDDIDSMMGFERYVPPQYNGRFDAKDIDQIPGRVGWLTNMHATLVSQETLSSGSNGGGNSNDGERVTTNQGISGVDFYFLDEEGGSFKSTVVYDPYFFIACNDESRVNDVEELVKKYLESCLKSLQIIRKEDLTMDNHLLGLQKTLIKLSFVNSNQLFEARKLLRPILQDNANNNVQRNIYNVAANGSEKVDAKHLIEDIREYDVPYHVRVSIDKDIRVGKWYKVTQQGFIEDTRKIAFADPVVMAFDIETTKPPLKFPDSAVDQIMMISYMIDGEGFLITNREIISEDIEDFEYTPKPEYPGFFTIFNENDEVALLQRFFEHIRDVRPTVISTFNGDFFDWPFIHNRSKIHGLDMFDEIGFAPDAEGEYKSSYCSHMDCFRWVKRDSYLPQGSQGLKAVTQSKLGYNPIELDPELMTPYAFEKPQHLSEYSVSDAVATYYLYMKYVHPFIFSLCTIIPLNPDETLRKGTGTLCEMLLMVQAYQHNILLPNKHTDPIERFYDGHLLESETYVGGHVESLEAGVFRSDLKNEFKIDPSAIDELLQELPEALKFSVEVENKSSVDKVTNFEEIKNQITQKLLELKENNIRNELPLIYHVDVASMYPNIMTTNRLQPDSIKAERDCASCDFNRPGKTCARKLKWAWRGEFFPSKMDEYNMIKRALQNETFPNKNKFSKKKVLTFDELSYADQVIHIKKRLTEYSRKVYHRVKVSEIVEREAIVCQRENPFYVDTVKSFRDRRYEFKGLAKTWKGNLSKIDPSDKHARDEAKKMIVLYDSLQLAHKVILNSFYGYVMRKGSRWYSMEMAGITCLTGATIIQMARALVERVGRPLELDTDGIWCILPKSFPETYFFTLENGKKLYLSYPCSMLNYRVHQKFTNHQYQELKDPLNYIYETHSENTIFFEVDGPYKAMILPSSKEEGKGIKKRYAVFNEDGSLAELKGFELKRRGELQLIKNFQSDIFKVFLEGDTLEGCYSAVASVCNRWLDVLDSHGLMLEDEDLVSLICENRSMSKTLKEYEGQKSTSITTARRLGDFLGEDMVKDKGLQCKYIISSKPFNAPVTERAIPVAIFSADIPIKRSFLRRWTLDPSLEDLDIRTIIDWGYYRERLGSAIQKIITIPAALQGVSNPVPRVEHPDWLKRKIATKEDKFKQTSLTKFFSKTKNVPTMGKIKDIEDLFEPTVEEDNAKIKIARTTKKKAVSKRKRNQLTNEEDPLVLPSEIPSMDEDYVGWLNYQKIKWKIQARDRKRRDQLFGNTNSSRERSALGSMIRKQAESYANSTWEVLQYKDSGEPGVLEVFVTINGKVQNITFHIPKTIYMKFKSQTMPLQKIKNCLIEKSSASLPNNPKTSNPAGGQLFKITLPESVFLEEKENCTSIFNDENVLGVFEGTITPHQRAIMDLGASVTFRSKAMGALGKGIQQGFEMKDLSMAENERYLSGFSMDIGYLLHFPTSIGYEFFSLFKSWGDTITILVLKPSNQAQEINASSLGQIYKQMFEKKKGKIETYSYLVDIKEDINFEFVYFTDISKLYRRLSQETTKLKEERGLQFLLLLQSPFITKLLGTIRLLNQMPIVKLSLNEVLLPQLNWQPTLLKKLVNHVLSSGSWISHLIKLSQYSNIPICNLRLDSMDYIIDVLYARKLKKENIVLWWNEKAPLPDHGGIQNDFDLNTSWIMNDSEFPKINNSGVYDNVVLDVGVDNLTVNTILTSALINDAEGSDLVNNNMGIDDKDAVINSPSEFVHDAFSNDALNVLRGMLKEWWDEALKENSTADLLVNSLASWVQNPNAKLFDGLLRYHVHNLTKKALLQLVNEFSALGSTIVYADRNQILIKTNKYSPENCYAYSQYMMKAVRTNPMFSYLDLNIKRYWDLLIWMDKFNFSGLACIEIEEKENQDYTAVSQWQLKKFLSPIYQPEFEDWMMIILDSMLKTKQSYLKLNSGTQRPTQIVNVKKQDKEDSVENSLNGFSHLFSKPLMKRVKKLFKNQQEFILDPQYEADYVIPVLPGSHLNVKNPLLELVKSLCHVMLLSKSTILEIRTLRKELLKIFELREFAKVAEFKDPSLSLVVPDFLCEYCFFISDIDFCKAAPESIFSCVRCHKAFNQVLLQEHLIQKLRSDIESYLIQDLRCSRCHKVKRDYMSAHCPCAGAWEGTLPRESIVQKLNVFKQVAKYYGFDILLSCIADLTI
Assay: cryo-EM structure; replisome assembled at room temperature from 0.7 uM CMG, forked DNA and ATPγS, then 1.5 molar excess of Polε, Ctf4, Tof1-Csm3; 100 mM KCl, 25 mM HEPES pH 7.6, 4 mM MgCl2, 4 mM ATPγS; 10-30% glycerol gradient with glutaraldehyde fixation; States I-VI by 3D classification
Settings: both partners purified

Binding result, binds:
B1
B2
B3
